The record followed here is patent publication US20250304640A1 (ORIKINE BIO SL, published 2025).

Common to all, as to assay: cell-based or functional assay
Assay [1] addresses T1, CSF1 receptor (CSF1R) (UniProt P07333 20-972, limits assumed).
For assay [2], the target named is T2, IL-10 receptor (IL-10R: IL10RA and IL10RB) on HEK-Blue IL-10 reporter cells (UniProt Q13651 22-578; Q08334 20-325, limits assumed).
T2 sequence (looked up) 1: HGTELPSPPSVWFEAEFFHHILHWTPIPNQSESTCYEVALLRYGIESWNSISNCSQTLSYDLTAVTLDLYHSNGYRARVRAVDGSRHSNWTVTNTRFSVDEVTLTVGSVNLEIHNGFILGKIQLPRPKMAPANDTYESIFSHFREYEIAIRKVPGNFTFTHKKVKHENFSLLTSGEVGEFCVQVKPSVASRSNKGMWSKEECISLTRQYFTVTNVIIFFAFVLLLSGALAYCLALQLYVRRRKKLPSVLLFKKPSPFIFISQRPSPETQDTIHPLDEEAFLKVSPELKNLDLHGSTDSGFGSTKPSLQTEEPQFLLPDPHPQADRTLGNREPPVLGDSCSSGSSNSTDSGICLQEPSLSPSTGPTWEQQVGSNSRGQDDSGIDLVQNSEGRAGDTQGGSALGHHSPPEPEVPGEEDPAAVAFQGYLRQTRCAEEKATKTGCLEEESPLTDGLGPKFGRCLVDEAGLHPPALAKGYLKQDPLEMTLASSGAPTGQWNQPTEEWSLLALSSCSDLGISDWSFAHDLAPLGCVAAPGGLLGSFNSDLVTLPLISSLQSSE
T2 sequence (looked up) 2: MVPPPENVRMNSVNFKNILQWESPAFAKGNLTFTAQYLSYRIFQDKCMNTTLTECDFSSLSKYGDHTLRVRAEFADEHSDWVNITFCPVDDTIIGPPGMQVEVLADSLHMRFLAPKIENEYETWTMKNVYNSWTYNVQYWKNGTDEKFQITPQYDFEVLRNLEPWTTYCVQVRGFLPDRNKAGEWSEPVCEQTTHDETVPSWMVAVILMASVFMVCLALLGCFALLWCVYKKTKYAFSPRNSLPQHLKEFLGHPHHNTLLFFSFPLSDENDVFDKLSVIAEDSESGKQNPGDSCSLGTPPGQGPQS

Assay [3] addresses T1, CSF1 receptor (CSF1R). The source holds these as a separate data set.
The target in assay [4] is T2, IL-10 receptor (IL-10R: IL10RA and …). The source holds these as a separate data set.
Assay [5] has the same target. The source holds these as a separate data set.

T1 sequence (P07333 20-972 limits assumed): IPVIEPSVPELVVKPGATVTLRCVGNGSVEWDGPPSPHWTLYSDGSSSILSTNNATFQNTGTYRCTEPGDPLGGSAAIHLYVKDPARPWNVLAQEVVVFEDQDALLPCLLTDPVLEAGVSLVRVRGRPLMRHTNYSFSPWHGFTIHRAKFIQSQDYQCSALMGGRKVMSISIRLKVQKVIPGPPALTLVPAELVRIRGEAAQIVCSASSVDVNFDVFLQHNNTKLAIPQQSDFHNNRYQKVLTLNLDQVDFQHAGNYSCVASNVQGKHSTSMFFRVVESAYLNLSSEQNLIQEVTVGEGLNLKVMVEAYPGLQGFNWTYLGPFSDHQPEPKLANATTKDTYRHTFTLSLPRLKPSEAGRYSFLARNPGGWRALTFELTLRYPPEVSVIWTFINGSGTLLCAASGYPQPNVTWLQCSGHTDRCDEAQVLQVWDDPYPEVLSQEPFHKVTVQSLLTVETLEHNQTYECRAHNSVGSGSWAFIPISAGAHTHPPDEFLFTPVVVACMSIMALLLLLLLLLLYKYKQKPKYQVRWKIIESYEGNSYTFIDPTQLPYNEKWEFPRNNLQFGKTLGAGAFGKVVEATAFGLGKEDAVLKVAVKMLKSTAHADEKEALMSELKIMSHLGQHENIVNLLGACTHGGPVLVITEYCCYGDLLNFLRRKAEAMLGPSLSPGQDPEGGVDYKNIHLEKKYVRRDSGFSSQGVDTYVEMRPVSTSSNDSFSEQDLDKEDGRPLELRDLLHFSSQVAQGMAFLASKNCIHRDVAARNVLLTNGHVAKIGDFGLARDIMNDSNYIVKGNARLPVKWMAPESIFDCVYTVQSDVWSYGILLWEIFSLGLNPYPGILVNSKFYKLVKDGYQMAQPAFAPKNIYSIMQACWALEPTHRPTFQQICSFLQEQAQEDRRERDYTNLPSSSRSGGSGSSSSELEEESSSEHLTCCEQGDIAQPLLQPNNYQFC

B1: CSF1-30AA-IL10-HiBit (ligand)
chain: EEVSEYCSHMIGSGHLQSLQRLIDSQMETSCQITFEFVDQEQLKDPVCYLKKAFLLVQDIMEDTMRFRDNTPNAIAIVQLQELSLRLKSCFTKDYEEHDKACVRTFYETPLQLLEKVKNVFNETKNLLDKDWNIFSKNCNNSFAECSSQDGGGGGSGGSGGSGGSGGSGGSGGSGGSGGGRASPGQGTQSENSCTHFPGNLPNMLRDLRDAFSRVKTFFQMKDQLDNLLLKESLLEDFKGYLGCQALSEMIQFYLEEVMPQAENQDPDIKAHVNSLGENLKTLRLRLRRCHRFLPCENKSKAVEQVKNAFNKLQEKGIYKAMSEFDIFINYIEAYMTMKIRNGGVSGWRLFKKIS
B1: the “EC-50 for CSF1 activity, HEK293 CSF1R/SRE reporter” value in assay [1] was 5.5e-10. In addition, the “EC-50 for IL10 activity, HEK-Blue IL-10 reporter cells” value (“EC-50 for IL10 activity” for short) in assay [2] worked out at 2.35e-10.

B2: CSF1-35AA-Foldikine10-HiBit (ligand)
chain: EEVSEYCSHMIGSGHLQSLQRLIDSQMETSCQITFEFVDQEQLKDPVCYLKKAFLLVQDIMEDTMRFRDNTPNAIAIVQLQELSLRLKSCFTKDYEEHDKACVRTFYETPLQLLEKVKNVFNETKNLLDKDWNIFSKNCNNSFAECSSQDGGGGGSGGGGSGGSGGSGGSGGSGGSGGSGGSGGGMTQSENSCTHFPGNLPNMLRDLRDAFSRVKTFFQMKDQLDNLLLKESLLEDFKGYLGCQALSEMIQFYLEEVMPQAENQEPDIKAHVNSLGENLKTLRLRLRRCHRFLPCENKSKAVEQVKNAFNKLQEKGIYKAMSEFDIFINYIEAYMTMNNGGLDYLPNMLRDLRDAFSRVKTFFQMKDQLDNLLLKESLLEDFKGYLGCQALSEMIQFYLEEVMPQAENQDPDIKAHVNSLGENLKTLRLRLRRNHRFLPCENKSKAVEQVKNAFNKLQEKGIYKAMSEFDIFINYIEAYMTMKIRNGGVSGWRLFKKIS
As to B2, the “EC-50 for CSF1 activity, HEK293 CSF1R/SRE reporter” value in assay [1] worked out at 1.83e-09. In addition, in assay [2], the “EC-50 for IL10 activity” value worked out at 3.18e-10.

B3: IL-10-CSF1-HiBit (ligand)
chain: SPGQGTQSENSCTHFPGNLPNMLRDLRDAFSRVKTFFQMKDQLDNLLLKESLLEDFKGYLGCQALSEMIQFYLEEVMPQAENQDPDIKAHVNSLGENLKTLRLRLRRCHRFLPCENKSKAVEQVKNAFNKLQEKGIYKAMSEFDIFINYIEAYMTMKIRNGGGGGSGGSGGSGGSGGSGGSGGSGGSGGGEEVSEYCSHMIGSGHLQSLQRLIDSQMETSCQITFEFVDQEQLKDPVCYLKKAFLLVQDIMEDTMRFRDNTPNAIAIVQLQELSLRLKSCFTKDYEEHDKACVRTFYETPLQLLEKVKNVFNETKNLLDKDWNIFSKNCNNSFAECSSQDGGVSGWRLFKKIS
As for B3, the “CSF1 EC-50, HEK293 CSF1R/SRE reporter” value in assay [3] came out at 4.64e-09. The “IL-10 EC-50, HEK-Blue IL-10 reporter cells” value in assay [4] is 5.9e-09.

B4: foldikine10-HiBit (ligand)
chain: MTQSENSCTHFPGNLPNMLRDLRDAFSRVKTFFQMKDQLDNLLLKESLLEDFKGYLGCQALSEMIQFYLEEVMPQAENQEPDIKAHVNSLGENLKTLRLRLRRCHRFLPCENKSKAVEQVKNAFNKLQEKGIYKAMSEFDIFINYIEAYMTMNNGGLDYLPNMLRDLRDAFSRVKTFFQMKDQLDNLLLKESLLEDFKGYLGCQALSEMIQFYLEEVMPQAENQDPDIKAHVNSLGENLKTLRLRLRRNHRFLPCENKSKAVEQVKNAFNKLQEKGIYKAMSEFDIFINYIEAYMTMKIRNGGVSGWRLFKKIS
As to B4, the “IL-10 EC-50, HEK-Blue IL-10 reporter cells” value in assay [4] was 2.14e-10.

B5: CSF1-25AA-Foldikine10-HiBit (ligand)
chain: EEVSEYCSHMIGSGHLQSLQRLIDSQMETSCQITFEFVDQEQLKDPVCYLKKAFLLVQDIMEDTMRFRDNTPNAIAIVQLQELSLRLKSCFTKDYEEHDKACVRTFYETPLQLLEKVKNVFNETKNLLDKDWNIFSKNCNNSFAECSSQDGGGGGSGGSGGSGGSGGSGGSGGSGGSGGGMTQSENSCTHFPGNLPNMLRDLRDAFSRVKTFFQMKDQLDNLLLKESLLEDFKGYLGCQALSEMIQFYLEEVMPQAENQEPDIKAHVNSLGENLKTLRLRLRRCHRFLPCENKSKAVEQVKNAFNKLQEKGIYKAMSEFDIFINYIEAYMTMNNGGLDYLPNMLRDLRDAFSRVKTFFQMKDQLDNLLLKESLLEDFKGYLGCQALSEMIQFYLEEVMPQAENQDPDIKAHVNSLGENLKTLRLRLRRNHRFLPCENKSKAVEQVKNAFNKLQEKGIYKAMSEFDIFINYIEAYMTMKIRNGGVSGWRLFKKIS
Turning to B5, in assay [1], the “EC-50 for CSF1 activity, HEK293 CSF1R/SRE reporter” value stood at 1.64e-09. In addition, the “EC-50 for IL10 activity” value in assay [2] came to 3.61e-10.

B6: IL10-HiBit (ligand)
chain: SPGQGTQSENSCTHFPGNLPNMLRDLRDAFSRVKTFFQMKDQLDNLLLKESLLEDFKGYLGCQALSEMIQFYLEEVMPQAENQDPDIKAHVNSLGENLKTLRLRLRRCHRFLPCENKSKAVEQVKNAFNKLQEKGIYKAMSEFDIFINYIEAYMTMKIRNGGVSGWRLFKKIS
With B6, the “IL-10 EC-50, HEK-Blue IL-10 reporter cells” value in assay [4] was 8e-10.

B7: ORK10-005 (ligand)
chain: MTQSENSCTHFPGNLPNMLRDLRDAFSRVKTFFQMKDQLDNLLLKESLLEDFKGYLGCQALSEMIQFYLEEVMPQAENQDPDIKAHVNSLGENLKTLRLRLRRCHRFLPCENKSKAVEQVKNAFNKLQEKGIYKAMSEFDIFINYIEAKDKDIRDGDELANMLRDLRDAFSRVKTFFQMKDQLDNLLLKESLLEDFKGYLGCQALSEMIQFYLEEVMPQAENQDPDIKAHVNSLGENLKTLRLRLRRCHRFLPCENKSKAVEQVKNAFNKLQEKGIYKAMSEFDIFINYIEAYMTM
Regarding B7, the “EC-50, HEK-Blue IL-10 reporter cells” value in assay [5] amounted to 6.25e-10.

B8: CSF1-IL10-HiBit (ligand)
chain: EEVSEYCSHMIGSGHLQSLQRLIDSQMETSCQITFEFVDQEQLKDPVCYLKKAFLLVQDIMEDTMRFRDNTPNAIAIVQLQELSLRLKSCFTKDYEEHDKACVRTFYETPLQLLEKVKNVFNETKNLLDKDWNIFSKNCNNSFAECSSQDGGGGGSGGSGGSGGSGGSGGSGGSGGSGGGSPGQGTQSENSCTHFPGNLPNMLRDLRDAFSRVKTFFQMKDQLDNLLLKESLLEDFKGYLGCQALSEMIQFYLEEVMPQAENQDPDIKAHVNSLGENLKTLRLRLRRCHRFLPCENKSKAVEQVKNAFNKLQEKGIYKAMSEFDIFINYIEAYMTMKIRNGGVSGWRLFKKIS
B8: the “CSF1 EC-50, HEK293 CSF1R/SRE reporter” value in assay [3] was 7.81e-10. Besides, the “IL-10 EC-50, HEK-Blue IL-10 reporter cells” value in assay [4] worked out at 1.16e-09.

B9: CSF1-35AA-IL10-HiBit (ligand)
chain: EEVSEYCSHMIGSGHLQSLQRLIDSQMETSCQITFEFVDQEQLKDPVCYLKKAFLLVQDIMEDTMRFRDNTPNAIAIVQLQELSLRLKSCFTKDYEEHDKACVRTFYETPLQLLEKVKNVFNETKNLLDKDWNIFSKNCNNSFAECSSQDGGGGGSGGGGSGGSGGSGGSGGSGGSGGSGGSGGGRASPGQGTQSENSCTHFPGNLPNMLRDLRDAFSRVKTFFQMKDQLDNLLLKESLLEDFKGYLGCQALSEMIQFYLEEVMPQAENQDPDIKAHVNSLGENLKTLRLRLRRCHRFLPCENKSKAVEQVKNAFNKLQEKGIYKAMSEFDIFINYIEAYMTMKIRNGGVSGWRLFKKIS
With B9, the “EC-50 for CSF1 activity, HEK293 CSF1R/SRE reporter” value in assay [1] is 6.5e-10. Moreover, the “EC-50 for IL10 activity” value in assay [2] was 1.9e-10.

B10: CSF1-15AA-Foldikine10-HiBit (ligand)
chain: EEVSEYCSHMIGSGHLQSLQRLIDSQMETSCQITFEFVDQEQLKDPVCYLKKAFLLVQDIMEDTMRFRDNTPNAIAIVQLQELSLRLKSCFTKDYEEHDKACVRTFYETPLQLLEKVKNVFNETKNLLDKDWNIFSKNCNNSFAECSSQDGGSGGSGGSGGSGGGMTQSENSCTHFPGNLPNMLRDLRDAFSRVKTFFQMKDQLDNLLLKESLLEDFKGYLGCQALSEMIQFYLEEVMPQAENQEPDIKAHVNSLGENLKTLRLRLRRCHRFLPCENKSKAVEQVKNAFNKLQEKGIYKAMSEFDIFINYIEAYMTMNNGGLDYLPNMLRDLRDAFSRVKTFFQMKDQLDNLLLKESLLEDFKGYLGCQALSEMIQFYLEEVMPQAENQDPDIKAHVNSLGENLKTLRLRLRRNHRFLPCENKSKAVEQVKNAFNKLQEKGIYKAMSEFDIFINYIEAYMTMKIRNGGVSGWRLFKKIS
As for B10, the “EC-50 for CSF1 activity, HEK293 CSF1R/SRE reporter” value in assay [1] is 1.19e-09. In addition, the “EC-50 for IL10 activity” value in assay [2] is 2.6e-10.
